{
  "source": "paper PMC7640956",
  "origin": "cited, not measured here",
  "molecular_target": "Spike RBD (Severe acute respiratory syndrome coronavirus 2) (UniProt P0DTC2)",
  "data": [
    {"substance": "ACE2-derived 23-mer peptide (from UniProt Q9BYF1)", "values": [
      {"measurement": "Kd", "value": 47, "unit": "nM"}
    ]}
  ]
}
